Measured values published in US6143719A, “Bradykinin analogs as selective thrombin inhibitors” (The Regents of the University of Michigan, priority 1996, dated 2000).
Blank lines part the entries; values can stand above or below the substance they belong to. Ends that are not written are not given here.

Legend:
thrombin receptor = target: T1, thrombin receptor (Homo sapiens, UniProt P25116); experiment: flow cytometry of thrombin receptor epitopes (SPAN12, ATAP138) on α-thrombin activated platelets; type: cell-based; conditions: peptide 1 nM (so in the source), α-thrombin 1 nM
T1 construct: endogenous in cells; host or cells: washed platelets from fresh blood
T1 sequence (P25116 22-425): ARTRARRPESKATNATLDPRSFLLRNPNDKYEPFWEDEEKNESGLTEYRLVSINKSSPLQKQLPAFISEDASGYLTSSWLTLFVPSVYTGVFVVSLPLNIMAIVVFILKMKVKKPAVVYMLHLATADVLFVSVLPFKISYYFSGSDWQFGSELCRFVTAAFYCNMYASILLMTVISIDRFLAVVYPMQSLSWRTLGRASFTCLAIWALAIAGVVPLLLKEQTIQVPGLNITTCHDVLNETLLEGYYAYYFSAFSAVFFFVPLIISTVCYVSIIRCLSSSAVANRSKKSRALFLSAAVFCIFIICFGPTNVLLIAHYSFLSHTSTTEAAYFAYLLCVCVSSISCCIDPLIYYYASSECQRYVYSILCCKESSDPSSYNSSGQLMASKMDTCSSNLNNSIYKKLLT
Procedure: Flow cytometry studies were performed to determine whether BK analogs prevent α-thrombin from eliminating an epitope on the thrombin receptor which is lost following α-thrombin cleavage- of the receptor. SPAN12 is an antibody to the thrombin receptor on platelets, which is specific for such an epitope. Studies were also performed to determine the effect of BK analogs on an epitope recognized by monoclonal antibody ATAP 138. The antibody is directed to an epitope on the thrombin receptor which is preserved after α-thrombin cleaves the receptor (FIGS. 7A-7D).
Monoclonal antibody SPAN12 was reared to the 12 amino acids, Asn-Ala-Thr-Leu-Asp-Pro-Arg-Ser-Phe-Leu-Leu-Arg (SEQ ID NO:2), that bridge the α-thrombin cleavage site on the thrombin receptor by the methods of Molinot et al., J. Biol. Chem. 270:ln Press, 1995. […]
Mouse IgG and an antibody to the epitope CD62 were used as controls. […] The fluorescence of bound FITC-anti-IgG to platelets was monitored on an Epics-C flow cytometer (Coulter Electronics, Hialeah, Fla.). Light scatter and fluorescence channels were set at logarithmic gain. […] Green fluorescence was observed through a 525 nm band pass filter. The relative fluorescence intensity of at least 15,000 platelets was analyzed in each sample. […]

α-thrombin = α-thrombin (Homo sapiens, UniProt P00734); experiment: α-thrombin cleavage of thrombin receptor peptide NAT12 (HPLC); type: biochemical; conditions: peptide 1 mM
Procedure: A further study was performed to determine whether BK analogs prevent α-thrombin from cleaving the thrombin receptor reported by Vu et al., Cell 64, 1057 (1991). A peptide, NAT12 (SEQ ID NO:2), which spans amino acids […] of the α-thrombin cleavage site on the thrombin receptor, was used to determine whether the BK analogs described herein blocked α-thrombin cleavage of the cloned receptor.
The cleavage study was performed according to the method of Molino et al., J. Biol. Chem. 270,11168(1995),inwhichNAT12(SEQ ID NO:2) was dissolved in a solution of 0.01 M NaH2 PO4 and 0.15 M NaCl, pH 7.4. […] Following incubation, each mixture was separated by applying the mixture to a Vyadec C-18 HPLC column in 0.1% trifluoroacetic acid and eluting the mixture with a gradient from 0% to 100% of 80% MeCN and 0.1% trifluoroacetic acid. The size of the separated products were confirmed by mass spectrometry.

Human platelets in PRP = experiment: γ-thrombin-induced aggregation of human platelets in PRP in vitro; type: cell-based; conditions: 20 nM γ-thrombin
Procedure: Platelet aggregation studies on the PRP were conducted on a 4-channel aggregometer (BioData-PAP-4, Bio Data Corp., Hatboro, Pa.). The degree of platelet aggregation was determined by measuring the increase in light transmission through a stirred suspension of PRP maintained at 37° C. Platelet aggregation was induced in the PRP sample by addition of 20 μM ADP and γ-thrombin according to the method of Harfenist et al., Thromb. Haemost. 53, 183 (1985). […] Like human platelets, rabbit platelets display a variable response to γ-thrombin. Each rabbit's platelets were evaluated before BK analog infusion for their threshold response to γ-thrombin. The rabbit platelets used in this experiment were responsive to 10 nM to 40 nM γ-thrombin. Simultaneous γ-thrombin-induced platelet aggregation studies were performed with 10, 20, and 40 nM γ-thrombin and 20 μM ADP.
The protocol for the human platelet study was identical to that for the functional study with white rabbits described above in Section III.A, with the following differences.
Blood samples were obtained from normal human volunteers. Platelet counts were measured with a Coulter counter, Model 2F (Coulter, Hialeah, Fla.,) and adjusted to a platelet count of 200,000 platelets/μl. Each individual's platelets at baseline were measured for their threshold response to γ-thrombin. Typical threshold levels were between 10 nM to 40 nM.

- alteration of SPAN12 epitope by α-thrombin (thrombin receptor): did not prevent
Substance: SEQ ID NO:4: unrelated peptide having an amino acid content similar to BK analog SEQ ID NO:14 (FNQTQPERGDNNLTR)

Substance: SEQ ID NO:21: non-BK analog peptide derived from domain 3 of kininogen (LNAENNA) [reference compound]
- protection of NAT12 / thrombin receptor from α-thrombin cleavage (α-thrombin): no protection
- cleavage product peak 2, share of non-treated NAT12 peak area (α-thrombin; 8 nM α-thrombin): 32%
- cleavage product peak 3, share of non-treated NAT12 peak area (α-thrombin; 8 nM α-thrombin): 54%
- reduction of NAT12 peak 1 area after α-thrombin (α-thrombin; 8 nM α-thrombin, one hour 37° C.): 86%
- effect on γ-thrombin-induced aggregation tracing (Human platelets in PRP; peptide 1 mM): unable to alter

Substance: 4-MAP: four-branch multiple antigenic peptide of BK analog SEQ ID NO:20 on a lysine-β-alanine core (RPPG; also: four-branch MAP on lysine-beta-alanine core)
- effect on γ-thrombin-induced aggregation tracing (Human platelets in PRP; 0.05 mM): abolished
